Experimental data taken from article PMC4155688, “Mapping the Putative G Protein-coupled Receptor (GPCR) Docking Site on GPCR Kinase 2” (The Journal of Biological Chemistry, 2014).

B1: RlucII-GRK2 (wild type) (enzyme, human, UniProt P25098 1-689, looked up)
chain: MADLEAVLADVSYLMAMEKSKATPAARASKKILLPEPSIRSVMQKYLEDRGEVTFEKIFSQKLGYLLFRDFCLNHLEEARPLVEFYEEIKKYEKLETEEERVARSREIFDSYIMKELLACSHPFSKSATEHVQGHLGKKQVPPDLFQPYIEEICQNLRGDVFQKFIESDKFTRFCQWKNVELNIHLTMNDFSVHRIIGRGGFGEVYGCRKADTGKMYAMKCLDKKRIKMKQGETLALNERIMLSLVSTGDCPFIVCMSYAFHTPDKLSFILDLMNGGDLHYHLSQHGVFSEADMRFYAAEIILGLEHMHNRFVVYRDLKPANILLDEHGHVRISDLGLACDFSKKKPHASVGTHGYMAPEVLQKGVAYDSSADWFSLGCMLFKLLRGHSPFRQHKTKDKHEIDRMTLTMAVELPDSFSPELRSLLEGLLQRDVNRRLGCLGRGAQEVKESPFFRSLDWQMVFLQKYPPPLIPPRGEVNAADAFDIGSFDEEDTKGIKLLDSDQELYRNFPLTISERWQQEVAETVFDTINAETDRLEARKKAKNKQLGHEEDYALGKDCIMHGYMSKMGNPFLTQWQRRYFYLFPNRLEWRGEGEAPQSLLTMEEIQSVEETQIKERKCLLLKIRGGKQFILQCDSDPELVQWKKELRDAYREAQQLVQRVPKMKNKPRSPVVELSKVPLVQRGSANGL
notes: G protein-coupled receptor kinase 2 (GRK2), human; also called luciferase-GRK2; WT RlucII-GRK2; source: HEK293T, transfected, in living cells
B2: RlucII-GRK2 L4A (enzyme, human, UniProt P25098 1-689, looked up)
chain: MADAEAVLADVSYLMAMEKSKATPAARASKKILLPEPSIRSVMQKYLEDRGEVTFEKIFSQKLGYLLFRDFCLNHLEEARPLVEFYEEIKKYEKLETEEERVARSREIFDSYIMKELLACSHPFSKSATEHVQGHLGKKQVPPDLFQPYIEEICQNLRGDVFQKFIESDKFTRFCQWKNVELNIHLTMNDFSVHRIIGRGGFGEVYGCRKADTGKMYAMKCLDKKRIKMKQGETLALNERIMLSLVSTGDCPFIVCMSYAFHTPDKLSFILDLMNGGDLHYHLSQHGVFSEADMRFYAAEIILGLEHMHNRFVVYRDLKPANILLDEHGHVRISDLGLACDFSKKKPHASVGTHGYMAPEVLQKGVAYDSSADWFSLGCMLFKLLRGHSPFRQHKTKDKHEIDRMTLTMAVELPDSFSPELRSLLEGLLQRDVNRRLGCLGRGAQEVKESPFFRSLDWQMVFLQKYPPPLIPPRGEVNAADAFDIGSFDEEDTKGIKLLDSDQELYRNFPLTISERWQQEVAETVFDTINAETDRLEARKKAKNKQLGHEEDYALGKDCIMHGYMSKMGNPFLTQWQRRYFYLFPNRLEWRGEGEAPQSLLTMEEIQSVEETQIKERKCLLLKIRGGKQFILQCDSDPELVQWKKELRDAYREAQQLVQRVPKMKNKPRSPVVELSKVPLVQRGSANGL
notes: GRK2, human; source: HEK293T, transfected, in living cells
B3: RlucII-GRK2 V7P (enzyme, human, UniProt P25098 1-689, looked up)
chain: MADLEAPLADVSYLMAMEKSKATPAARASKKILLPEPSIRSVMQKYLEDRGEVTFEKIFSQKLGYLLFRDFCLNHLEEARPLVEFYEEIKKYEKLETEEERVARSREIFDSYIMKELLACSHPFSKSATEHVQGHLGKKQVPPDLFQPYIEEICQNLRGDVFQKFIESDKFTRFCQWKNVELNIHLTMNDFSVHRIIGRGGFGEVYGCRKADTGKMYAMKCLDKKRIKMKQGETLALNERIMLSLVSTGDCPFIVCMSYAFHTPDKLSFILDLMNGGDLHYHLSQHGVFSEADMRFYAAEIILGLEHMHNRFVVYRDLKPANILLDEHGHVRISDLGLACDFSKKKPHASVGTHGYMAPEVLQKGVAYDSSADWFSLGCMLFKLLRGHSPFRQHKTKDKHEIDRMTLTMAVELPDSFSPELRSLLEGLLQRDVNRRLGCLGRGAQEVKESPFFRSLDWQMVFLQKYPPPLIPPRGEVNAADAFDIGSFDEEDTKGIKLLDSDQELYRNFPLTISERWQQEVAETVFDTINAETDRLEARKKAKNKQLGHEEDYALGKDCIMHGYMSKMGNPFLTQWQRRYFYLFPNRLEWRGEGEAPQSLLTMEEIQSVEETQIKERKCLLLKIRGGKQFILQCDSDPELVQWKKELRDAYREAQQLVQRVPKMKNKPRSPVVELSKVPLVQRGSANGL
notes: as for B2
B4: RlucII-GRK2 V7E/L8E (enzyme, human, UniProt P25098 1-689, looked up)
chain: MADLEAEEADVSYLMAMEKSKATPAARASKKILLPEPSIRSVMQKYLEDRGEVTFEKIFSQKLGYLLFRDFCLNHLEEARPLVEFYEEIKKYEKLETEEERVARSREIFDSYIMKELLACSHPFSKSATEHVQGHLGKKQVPPDLFQPYIEEICQNLRGDVFQKFIESDKFTRFCQWKNVELNIHLTMNDFSVHRIIGRGGFGEVYGCRKADTGKMYAMKCLDKKRIKMKQGETLALNERIMLSLVSTGDCPFIVCMSYAFHTPDKLSFILDLMNGGDLHYHLSQHGVFSEADMRFYAAEIILGLEHMHNRFVVYRDLKPANILLDEHGHVRISDLGLACDFSKKKPHASVGTHGYMAPEVLQKGVAYDSSADWFSLGCMLFKLLRGHSPFRQHKTKDKHEIDRMTLTMAVELPDSFSPELRSLLEGLLQRDVNRRLGCLGRGAQEVKESPFFRSLDWQMVFLQKYPPPLIPPRGEVNAADAFDIGSFDEEDTKGIKLLDSDQELYRNFPLTISERWQQEVAETVFDTINAETDRLEARKKAKNKQLGHEEDYALGKDCIMHGYMSKMGNPFLTQWQRRYFYLFPNRLEWRGEGEAPQSLLTMEEIQSVEETQIKERKCLLLKIRGGKQFILQCDSDPELVQWKKELRDAYREAQQLVQRVPKMKNKPRSPVVELSKVPLVQRGSANGL
notes: as for B2
B5: RlucII-GRK2 V477D (enzyme, human, UniProt P25098 1-689, looked up)
chain: MADLEAVLADVSYLMAMEKSKATPAARASKKILLPEPSIRSVMQKYLEDRGEVTFEKIFSQKLGYLLFRDFCLNHLEEARPLVEFYEEIKKYEKLETEEERVARSREIFDSYIMKELLACSHPFSKSATEHVQGHLGKKQVPPDLFQPYIEEICQNLRGDVFQKFIESDKFTRFCQWKNVELNIHLTMNDFSVHRIIGRGGFGEVYGCRKADTGKMYAMKCLDKKRIKMKQGETLALNERIMLSLVSTGDCPFIVCMSYAFHTPDKLSFILDLMNGGDLHYHLSQHGVFSEADMRFYAAEIILGLEHMHNRFVVYRDLKPANILLDEHGHVRISDLGLACDFSKKKPHASVGTHGYMAPEVLQKGVAYDSSADWFSLGCMLFKLLRGHSPFRQHKTKDKHEIDRMTLTMAVELPDSFSPELRSLLEGLLQRDVNRRLGCLGRGAQEVKESPFFRSLDWQMVFLQKYPPPLIPPRGEDNAADAFDIGSFDEEDTKGIKLLDSDQELYRNFPLTISERWQQEVAETVFDTINAETDRLEARKKAKNKQLGHEEDYALGKDCIMHGYMSKMGNPFLTQWQRRYFYLFPNRLEWRGEGEAPQSLLTMEEIQSVEETQIKERKCLLLKIRGGKQFILQCDSDPELVQWKKELRDAYREAQQLVQRVPKMKNKPRSPVVELSKVPLVQRGSANGL
notes: as for B2
B6: RlucII-GRK2 V11A (enzyme, human, UniProt P25098 1-689, looked up)
chain: MADLEAVLADASYLMAMEKSKATPAARASKKILLPEPSIRSVMQKYLEDRGEVTFEKIFSQKLGYLLFRDFCLNHLEEARPLVEFYEEIKKYEKLETEEERVARSREIFDSYIMKELLACSHPFSKSATEHVQGHLGKKQVPPDLFQPYIEEICQNLRGDVFQKFIESDKFTRFCQWKNVELNIHLTMNDFSVHRIIGRGGFGEVYGCRKADTGKMYAMKCLDKKRIKMKQGETLALNERIMLSLVSTGDCPFIVCMSYAFHTPDKLSFILDLMNGGDLHYHLSQHGVFSEADMRFYAAEIILGLEHMHNRFVVYRDLKPANILLDEHGHVRISDLGLACDFSKKKPHASVGTHGYMAPEVLQKGVAYDSSADWFSLGCMLFKLLRGHSPFRQHKTKDKHEIDRMTLTMAVELPDSFSPELRSLLEGLLQRDVNRRLGCLGRGAQEVKESPFFRSLDWQMVFLQKYPPPLIPPRGEVNAADAFDIGSFDEEDTKGIKLLDSDQELYRNFPLTISERWQQEVAETVFDTINAETDRLEARKKAKNKQLGHEEDYALGKDCIMHGYMSKMGNPFLTQWQRRYFYLFPNRLEWRGEGEAPQSLLTMEEIQSVEETQIKERKCLLLKIRGGKQFILQCDSDPELVQWKKELRDAYREAQQLVQRVPKMKNKPRSPVVELSKVPLVQRGSANGL
notes: as for B2

Assays:
α2AAR-GFP^2 [1] = biological target: T1, α2AAR-GFP^2 (UniProt P08913 1-465); experiment: FRET or BRET; living HEK293T cells co-transfected with α2AAR-GFP^2 and RlucII-GRK2; dose-response to norepinephrine read 6 min after addition; NOR-promoted BRET fitted to biphasic (two-site) curves with a high-affinity and a low-affinity component; conditions: partners not purified
T1 construct: α2A-adrenergic receptor; also called α2A-adrenergic receptor; source: HEK293T, transfected, in living cells; not shown: GFP^2, C-terminal (from the name α2AAR-GFP^2), kept
T1 sequence (looked up): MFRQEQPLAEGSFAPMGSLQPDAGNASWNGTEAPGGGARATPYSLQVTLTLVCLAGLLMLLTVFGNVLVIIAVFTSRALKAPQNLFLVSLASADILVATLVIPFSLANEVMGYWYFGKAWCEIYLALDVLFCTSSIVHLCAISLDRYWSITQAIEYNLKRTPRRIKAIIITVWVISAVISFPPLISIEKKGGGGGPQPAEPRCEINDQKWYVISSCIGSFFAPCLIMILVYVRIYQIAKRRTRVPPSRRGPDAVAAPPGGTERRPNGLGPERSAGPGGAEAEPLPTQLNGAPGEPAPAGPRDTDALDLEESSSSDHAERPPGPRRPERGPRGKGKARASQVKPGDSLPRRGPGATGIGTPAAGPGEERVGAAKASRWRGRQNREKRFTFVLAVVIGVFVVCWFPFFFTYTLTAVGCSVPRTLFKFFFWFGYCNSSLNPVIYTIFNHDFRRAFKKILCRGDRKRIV

α2AAR-GFP^2 [2] = biological target: T1, α2AAR-GFP^2; experiment: FRET or BRET; living HEK293T cells co-transfected with α2AAR-GFP^2 (acceptor) and RlucII-GRK2 (donor); in PBS at room temperature, with or without 100 μM norepinephrine (one-point and titration: 6 min; time course); coelenterazine 400A 5 μM; net or agonist-promoted BRET; conditions: partners not purified

Row | Binder | percent reduction of the agonist-promoted BRET relative to WT (α2AAR-GFP^2 [2]) | percent reduction of receptor recruitment (agonist-promoted BRET) relative to WT (α2AAR-GFP^2 [2]) | also measured
1 | B1 |  |  | EC50,L of norepinephrine (low-affinity component of the biphasic BRET curve) (α2AAR-GFP^2 [1]): 7.9 µM
2 | B2 | ~55% |  | percent reduction of the low-affinity BRET component relative to WT (α2AAR-GFP^2 [1]): ~70%
3 | B3 |  | 60% | 
4 | B4 |  | 69% | 
5 | B5 |  |  | percent inhibition of the high-agonist concentration BRET signal relative to WT (α2AAR-GFP^2 [1]): 74%
6 | B6 | ~55% |  | 
